PMC4423210, “Ubiquitination of the Dishevelled DIX domain blocks its head-to-tail polymerization” (Nature Communications, 2015)

B1: DIX domain of human Dvl2 (hDvl2), unmodified (domain or fragment, UniProt O14641 11-93, looked up)
chain: VGETKVIYHLDEEETPYLVKIPVPAERITLGDFKSVLQRPAGAKYFFKSMDQDFGVVKEEISDDNARLPCFNGRVVSWLVSSD
notes: DIX domain of human Dishevelled-2 (hDvl2); Codon-optimised synthetic gene in pCDF-PylT; PDB 4WIP holds the Y27D mutant of the hDvl2 DIX domain; also called unmodified DIX; hDvl2 DIX domain; not shown: His6, N-terminal, cleaved
B2: hDvl2 DIX domain bearing the polymerization-deficient mutation M4 (Y27D) (domain or fragment, human)
chain: GETKVIYHLDEEETPDLVKIPVPAERITLGDFKSVLQRPAGAKYFFKSMDQDFGVVKEEISDDNARLPCFNGRVVSWLVSSDNPQPEMAPPVHEPR
notes: DIX domain of human Dishevelled-2 (hDvl2) with Y27D; Crystallised at 50 mg/ml; forms a helical head-to-tail filament in the crystal; also called hDvl2 DIX-Y27D; source: E. coli BL21-CodonPlus(DE3)-RIL, purified (Ni-NTA, TEV, gel filtration, anion exchange); not shown: 6xHis, N-terminal, cleaved

Assays:
[1] = target: the molecule itself; assay: SEC-MALS; highest loading concentration (235 μM DIX, ∼160 μM DIX54-Ub or DIX58-Ub; reduced ∼10x during SEC); Superdex-75 HR10/300, 20 mM Tris pH 7.4, 200 mM NaCl, 0.01% NaN3; self-association, apparent molecularity
[2] = target: the molecule itself; assay: SEC-MALS; loading concentration 10 μM (reduced ∼10x during SEC); Superdex-75 HR10/300, 20 mM Tris pH 7.4, 200 mM NaCl, 0.01% NaN3; self-association, apparent molecularity
[3] = target: the molecule itself; assay: SEC-MALS; loading concentration 50 μM (reduced ∼10x during SEC); Superdex-75 HR10/300, 20 mM Tris pH 7.4, 200 mM NaCl, 0.01% NaN3; self-association, apparent molecularity
[4] = target: the molecule itself; assay: crystal structure; hDvl2 DIX-Y27D, 40% PEG400, 0.1 M Tris pH 8.5, 0.2 M LiSO4, 19 °C; helical filament in the crystal

| Protein | stoichiometry N [1] [monomers] | stoichiometry N [2] | stoichiometry N [3] | binding result [4] |
| --- | --- | --- | --- | --- |
| B1 | > 84 | 2 | 3 | – |
| B2 | – | – | – | binds |
